Laboratory results published in patent US12522842B2, “Glutamine synthetase mutant having glufosinate resistance and application thereof and cultivation method therefor” (GEVOTO LLC, priority 2019, dated 2026).

B1: OsK (protein)
chain: MASLTDLVNLNLSDTTEKIIAEYIWIGGSGMDLRSKARTLSGPVTDPSKLPKWNYDGSKTGQAPGEDSEVILYPQAIFKDPFRKGNNILVMCDCYTPAGEPIPTNKRHNAAKIFSSPEVASEEPWYGIEQEYTLLQKDINWPLGWPVGGFPGPQGPYYCGIGADKSFGRDIVDSHYKACLYAGINISGINGEVMPGQWEFQVGPSVGISAGDQVWVARYILERITEIAGVVVSFDPKPIPGDWNGAGAHTNYSTKSMRNDGGYEIIKSAIEKLKLRHKEHISAYGEGNERRLTGRHETADINTFSWGVANRGASVRVGRETEQNGKGYFEDRRPASNMDPYIVTSMIAETTIIWKP
modifications: OsK
B2: OsE (protein)
chain: MASLTDLVNLNLSDTTEKIIAEYIWIGGSGMDLRSKARTLSGPVTDPSKLPKWNYDGSETGQAPGEDSEVILYPQAIFKDPFRKGNNILVMCDCYTPAGEPIPTNKRHNAAKIFSSPEVASEEPWYGIEQEYTLLQKDINWPLGWPVGGFPGPQGPYYCGIGADKSFGRDIVDSHYKACLYAGINISGINGEVMPGQWEFQVGPSVGISAGDQVWVARYILERITEIAGVVVSFDPKPIPGDWNGAGAHTNYSTKSMRNDGGYEIIKSAIEKLKLRHKEHISAYGEGNERRLTGRHETADINTFSWGVANRGASVRVGRETEQNGKGYFEDRRPASNMDPYIVTSMIAETTIIWKP
modifications: OsE
B3: OsP (protein)
chain: MASLTDLVNLNLSDTTEKIIAEYIWIGGSGMDLRSKARTLSGPVTDPSKLPKWNYDGSPTGQAPGEDSEVILYPQAIFKDPFRKGNNILVMCDCYTPAGEPIPTNKRHNAAKIFSSPEVASEEPWYGIEQEYTLLQKDINWPLGWPVGGFPGPQGPYYCGIGADKSFGRDIVDSHYKACLYAGINISGINGEVMPGQWEFQVGPSVGISAGDQVWVARYILERITEIAGVVVSFDPKPIPGDWNGAGAHTNYSTKSMRNDGGYEIIKSAIEKLKLRHKEHISAYGEGNERRLTGRHETADINTFSWGVANRGASVRVGRETEQNGKGYFEDRRPASNMDPYIVTSMIAETTIIWKP
modifications: OsP
B4: OsV (protein)
chain: MASLTDLVNLNLSDTTEKIIAEYIWIGGSGMDLRSKARTLSGPVTDPSKLPKWNYDGSVTGQAPGEDSEVILYPQAIFKDPFRKGNNILVMCDCYTPAGEPIPTNKRHNAAKIFSSPEVASEEPWYGIEQEYTLLQKDINWPLGWPVGGFPGPQGPYYCGIGADKSFGRDIVDSHYKACLYAGINISGINGEVMPGQWEFQVGPSVGISAGDQVWVARYILERITEIAGVVVSFDPKPIPGDWNGAGAHTNYSTKSMRNDGGYEIIKSAIEKLKLRHKEHISAYGEGNERRLTGRHETADINTFSWGVANRGASVRVGRETEQNGKGYFEDRRPASNMDPYIVTSMIAETTIIWKP
modifications: OsV
B5: OsA (protein)
chain: MASLTDLVNLNLSDTTEKIIAEYIWIGGSGMDLRSKARTLSGPVTDPSKLPKWNYDGSATGQAPGEDSEVILYPQAIFKDPFRKGNNILVMCDCYTPAGEPIPTNKRHNAAKIFSSPEVASEEPWYGIEQEYTLLQKDINWPLGWPVGGFPGPQGPYYCGIGADKSFGRDIVDSHYKACLYAGINISGINGEVMPGQWEFQVGPSVGISAGDQVWVARYILERITEIAGVVVSFDPKPIPGDWNGAGAHTNYSTKSMRNDGGYEIIKSAIEKLKLRHKEHISAYGEGNERRLTGRHETADINTFSWGVANRGASVRVGRETEQNGKGYFEDRRPASNMDPYIVTSMIAETTIIWKP
modifications: OsA
B6: OsF (protein)
chain: MASLTDLVNLNLSDTTEKIIAEYIWIGGSGMDLRSKARTLSGPVTDPSKLPKWNYDGSFTGQAPGEDSEVILYPQAIFKDPFRKGNNILVMCDCYTPAGEPIPTNKRHNAAKIFSSPEVASEEPWYGIEQEYTLLQKDINWPLGWPVGGFPGPQGPYYCGIGADKSFGRDIVDSHYKACLYAGINISGINGEVMPGQWEFQVGPSVGISAGDQVWVARYILERITEIAGVVVSFDPKPIPGDWNGAGAHTNYSTKSMRNDGGYEIIKSAIEKLKLRHKEHISAYGEGNERRLTGRHETADINTFSWGVANRGASVRVGRETEQNGKGYFEDRRPASNMDPYIVTSMIAETTIIWKP
modifications: OsF
B7: OsC (protein)
chain: MASLTDLVNLNLSDTTEKIIAEYIWIGGSGMDLRSKARTLSGPVTDPSKLPKWNYDGSCTGQAPGEDSEVILYPQAIFKDPFRKGNNILVMCDCYTPAGEPIPTNKRHNAAKIFSSPEVASEEPWYGIEQEYTLLQKDINWPLGWPVGGFPGPQGPYYCGIGADKSFGRDIVDSHYKACLYAGINISGINGEVMPGQWEFQVGPSVGISAGDQVWVARYILERITEIAGVVVSFDPKPIPGDWNGAGAHTNYSTKSMRNDGGYEIIKSAIEKLKLRHKEHISAYGEGNERRLTGRHETADINTFSWGVANRGASVRVGRETEQNGKGYFEDRRPASNMDPYIVTSMIAETTIIWKP
modifications: OsC
B8: OsD (protein)
chain: MASLTDLVNLNLSDTTEKIIAEYIWIGGSGMDLRSKARTLSGPVTDPSKLPKWNYDGSDTGQAPGEDSEVILYPQAIFKDPFRKGNNILVMCDCYTPAGEPIPTNKRHNAAKIFSSPEVASEEPWYGIEQEYTLLQKDINWPLGWPVGGFPGPQGPYYCGIGADKSFGRDIVDSHYKACLYAGINISGINGEVMPGQWEFQVGPSVGISAGDQVWVARYILERITEIAGVVVSFDPKPIPGDWNGAGAHTNYSTKSMRNDGGYEIIKSAIEKLKLRHKEHISAYGEGNERRLTGRHETADINTFSWGVANRGASVRVGRETEQNGKGYFEDRRPASNMDPYIVTSMIAETTIIWKP
modifications: OsD

Test system: glutamine synthetase-deficient Escherichia coli
Assay: Growth of glutamine synthetase-deficient E. coli transformed with GS mutants in M9 medium containing glufosinate
Assay type: cell-based
Details: for growth of transformed GS-deficient E. coli (normal GS enzymatic activity): medium containing 0 mM glufosinate
From the text: According to the sequences of the nucleic acid molecules provided in Example 4, the nucleic acid sequences encoding rice GS mutants OsA, OsC, OsD, OsE, OsF, OsG, OsH, OsI, OsK, OsP, OST, OsV, and OsY were synthesized using chemical synthesis method. Restriction digestion sites (Pac1 and Sbf1) were introduced at both ends thereof, and after restriction digestion, they were linked under the action of ligase to an expression vector (such as pADV7 vector, whose structure is shown in FIG. 4) that was subjected to the same restriction digestion treatment. Then, glutamine synthetase-deficient Escherichia coli was transformed with the resultant. After verification, positive clones were picked up and inoculated in M9 medium containing different concentrations of glufosinate to grow, and the growth status of defective Escherichia coli was observed.
With wild-type rice GS (its amino acid sequence shown in SEQ ID NO. 1 and its encoding gene shown in SEQ ID NO. 4) as a negative control, the glufosinate resistance for the GS mutant OsA (S59A, wherein the amino acid S at site 59 of the rice GS is mutated into A), OsC (S59C), OsD (S59D), OsE (S59E), OsF (S59F), OsG (S59G), OsH (S59H), OsI (S591), OsK (S59K), OsP (S59P), OsT (S59T), OsV (S59V), OsY (S59Y) was detected.
With reference to the detection method of Experimental Example 1, glufosinate resistance of the rice GS mutant OsGR (S59G and H296R, the amino acid S at site 59 of rice GS is mutated into G and the amino acid H at site 296 is mutated into R), the wheat GS mutant TaGR (S59G and H296R, the amino acid S at site 59 of wheat GS is mutated into G and the amino acid H at site 296 is mutated into R), the soybean GS mutant GmGR (S59G and H296R, the amino acid S at site 59 of soybean GS is mutated into G and the amino acid H at site 296 is mutated into R) provided in Example 2 was verified.
With reference to Experimental example 1, the glufosinate resistance of rice GS mutants OA, OD, OE, OG, OI, OK, OM, OP, OQ, OR, OS, OT, and OV provided in Example 3 was detected according to the following method.
With wild-type rice GS as a negative control, the glufosinate resistance of GS mutants OA (H296A, amino acid H at site 296 of rice GS is mutated into A), OD (H296D), OE (H296E), OG (H296G), OI (H2961), OK (H296K), OM (H296M), OP (H296P), OQ (H296Q), OR (H296R), OS (H296S), OT (H296T), OV (H296V) was detected.

[1] = medium containing 10 mM glufosinate
[2] = medium with 50 mM/100 mM glufosinate

Row | Molecule | growth of transformed GS-deficient E. coli (normal GS enzymatic activity) | growth of transformed E. coli (glufosinate resistance) [1] | growth of transformed E. coli (glufosinate resistance) [2]
1 | B1 | could normally grow | significantly superior to that of the negative control | significantly grew
2 | B2 | could normally grow | significantly superior to that of the negative control | –
3 | B3 | could normally grow | significantly superior to that of the negative control | significantly grew
4 | B4 | could normally grow | significantly superior to that of the negative control | –
5 | B5 | could normally grow | significantly superior to that of the negative control | –
6 | B6 | could normally grow | significantly superior to that of the negative control | significantly grew
7 | B7 | could normally grow | significantly superior to that of the negative control | significantly grew
8 | B8 | could normally grow | significantly superior to that of the negative control | significantly grew
